Measured values published in publication PMC6787100, “Endophyte Bacillus subtilis evade plant defense by producing lantibiotic subtilomycin to mask self-produced flagellin” (Communications Biology, 2019).

biological target: T1, lantibiotic subtilomycin (Bacillus subtilis BSn5, lantibiotic; ApnB carries out the essential dehydration reaction of its biosynthesis; the modified residues are not listed); assay: MST; protein labelled with Cy5-NHS ester at fixed concentration, serial 2x dilutions of unlabelled subtilomycin (1 mM set as highest; 500 μM highest final in the legend); PBS pH 8.0; MST power 20%, LED power 60%; Monolith NT.115; constants called ambiguous, based on total subtilomycin concentration; details: both partners purified
T1 construct: subtilomycin, the lantibiotic made from the structural peptide encoded by apnA of Bacillus subtilis BSn5; exact molecular weight 3234.36 Da; Purified subtilomycin holds oligomers (trimers, tetramers, pentamers); source: B. subtilis BSn5 ∆hag mutant, 30% ammonium sulfate precipitate of culture supernatant, purified by prep-HPLC; also native in Apn5 (30% ammonium sulfate precipitate of BSn5 culture …)

Binder | Kd [µM]
6× His-tagged Hag protein (natural protein, labelled with Cy5-NHS ester (in the MST assay only)) not shown | 18.8 ± 4.15
EKLSSGLRINRAGDDAAGLAIS [flg22 (Bs), synthetic flg22 peptide of B. subtilis Hag] | 169 ± 10.4
∆Hag (flg22), Hag with the flg22 region deleted (domain or fragment) not shown | 66.4 ± 9.11
